Results reported in EP4361176A1 (CHUGAI SEIYAKU KABUSHIKI KAISHA, dated 2024).

T1: human CTLA4 (soluble analyte of the Biacore assays of Reference Example 3-3) (human, UniProt P16410 36-161)
T1 construct: also called hCTLA4
T1 sequence: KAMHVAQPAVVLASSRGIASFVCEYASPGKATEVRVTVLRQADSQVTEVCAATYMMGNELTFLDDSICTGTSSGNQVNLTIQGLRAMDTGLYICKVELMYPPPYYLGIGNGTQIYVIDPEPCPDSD

T2: human FcγRIIa H extracellular domain (human, UniProt P12318 34-217)
T2 construct: extracellular domain; Made by the method of WO2014104165; also called hFcγR IIa H; FcyRIIaH
T2 sequence (looked up): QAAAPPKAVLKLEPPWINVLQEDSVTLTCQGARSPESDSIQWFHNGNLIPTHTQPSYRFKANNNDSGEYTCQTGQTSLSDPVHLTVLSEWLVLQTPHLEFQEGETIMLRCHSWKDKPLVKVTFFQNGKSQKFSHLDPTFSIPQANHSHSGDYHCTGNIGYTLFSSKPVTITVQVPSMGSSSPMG

T3: human FcγRIIb extracellular domain (human, UniProt P31994 43-217)
T3 construct: extracellular domain; Made by the method of WO2014104165; also called hFcγR IIb; FcyRIIb
T3 sequence (looked up): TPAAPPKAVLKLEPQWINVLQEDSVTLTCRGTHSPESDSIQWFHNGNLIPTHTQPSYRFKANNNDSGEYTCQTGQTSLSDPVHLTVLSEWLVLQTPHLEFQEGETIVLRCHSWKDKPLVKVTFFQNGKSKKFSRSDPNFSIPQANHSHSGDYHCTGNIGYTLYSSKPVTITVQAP


How the values were obtained:
[1] = molecular target: T1, human CTLA4 (soluble analyte of the …); assay: SPR, 1000 nM CTLA4, per unit antibody, no ATP
[2] = molecular target: T1, human CTLA4 (soluble analyte of the …); assay: SPR, 1000 nM CTLA4, per unit antibody, ATP 1 uM
[3] = molecular target: T1, human CTLA4 (soluble analyte of the …); assay: SPR, 1000 nM CTLA4, per unit antibody, ATP 10 uM
[4] = molecular target: T1, human CTLA4 (soluble analyte of the …); assay: SPR, 1000 nM CTLA4, per unit antibody, ATP 100 uM
[5] = molecular target: T1, human CTLA4 (soluble analyte of the …); assay: SPR Biacore T200
[6] = molecular target: T4, human CTLA4 (hCTLA4-His-BAP: human CTLA4 extracellular region with C-terminal His-tag and BAP-tag) (human); assay: SPR (Biacore T200, 37C), antibody captured, human CTLA4 at 1000 nM, no ATP
T4 construct: This tie is an inference

[7] = molecular target: T4, human CTLA4 (hCTLA4-His-BAP: human …); assay: SPR (Biacore T200, 37C), antibody captured, human CTLA4 at 1000 nM, ATP 1 uM
[8] = molecular target: T4, human CTLA4 (hCTLA4-His-BAP: human …); assay: SPR (Biacore T200, 37C), antibody captured, human CTLA4 at 1000 nM, ATP 10 uM
[9] = molecular target: T4, human CTLA4 (hCTLA4-His-BAP: human …); assay: SPR (Biacore T200, 37C), antibody captured, human CTLA4 at 1000 nM, ATP 100 uM
[10] = molecular target: T2, human FcγRIIa H extracellular domain; assay: SPR; KD of G1d divided by KD of this antibody
[11] = molecular target: T3, human FcγRIIb extracellular domain; assay: SPR; KD of G1d divided by KD of this antibody
[12] = molecular target: T2, human FcγRIIa H extracellular domain; assay: SPR (Biacore 8K+), captured antibody, 1:1 Langmuir model
[13] = molecular target: T3, human FcγRIIb extracellular domain; assay: SPR (Biacore 8K+), captured antibody, steady state affinity model

Binding to Human CTLA4 [1]	Binding to Human CTLA4 [2]	Binding to Human CTLA4 [3]	Binding to Human CTLA4 [4]	Binder	other results
0.013	0.047	0.137	0.196	04H1207-G1m/04L1086-lam1 (antibody, human IgG1, lambda, V domains shown) VH: EVQLVESGGGLVKPGGSLRLSCAASGFTFSSKTMNWVRQAPGKGLEWVSSISTRSGYIYYAESVKGRFTISRDNAKNSLYLQMNSLRAEDTAVYYCARYGKREDMLWVFDYWGQGTLVTVSS VL: QSALTQPPSASGSPGQTVTISCDGPSTGVGDYNYVHWYQQHPGKAPKLMIYFTSKKPSGVPDRFSGSKSGNTASLTVSGLQAEDEADYFCQTYAAPLGPMFGGGTKLTVLG	
0.006	0.023	0.094	0.172	04H1077-G1m/04L1041-lam1 (antibody, human IgG1, lambda, V domains shown) VH: EVQLVESGGDLVKPGGGLRLSCAASGFTFSSRTMNWVRQAPGKGLEWVSSISTRSGYIYYAESVKGRFTISRDNAKNSLYLQMNSLRAEDTAVYYCARYGKREDMLWVFDYWGQGTLVTVSS VL: QSALTQPPSASGSPGQTVTISCDGPSTDVGDYNYVHWYQQHPGKAPKLMIYFTSKKPSGVPDRFSGSKSGNTASLTVSGLQAEDEADYFCSTYAAPLGPMFGGGTKLTVLG	
				04H1389v373-G1m/04L1086-lam1 (antibody, human IgG1, lambda) heavy: not shown light: QSALTQPPSASGSPGQTVTISCDGPSTGVGDYNYVHWYQQHPGKAPKLMIYFTSKKPSGVPDRFSGSKSGNTASLTVSGLQAEDEADYFCQTYAAPLGPMFGGGTKLTVLGQPKAAPSVTLFPPSSEELQANKATLVCLISDFYPGAVTVAWKADSSPVKAGVETTTPSKQSNNKYAASSYLSLTPEQWKSHRSYSCQVTHEGSTVEKTVAPTECS	binding result [5]: binds
				04H1389-G1m/04L1086-lam1 (antibody, human IgG1, lambda, V domains shown, Human IgG1 (G1m), human lambda) VH: EVQLVESGGGLVKPGGSLRLSCAASGFTFSSKTMNWVRQAPGKGLEWVSSISTQSHYIYYAESVKGRFTISRDNAKNSLYLQMNSLRAEDTAVYYCARYGKREDMLWVFDYWGQGTLVTVSS VL: QSALTQPPSASGSPGQTVTISCDGPSTGVGDYNYVHWYQQHPGKAPKLMIYFTSKKPSGVPDRFSGSKSGNTASLTVSGLQAEDEADYFCQTYAAPLGPMFGGGTKLTVLG	Binding to Human CTLA4 (binding amount per unit amount of antibody) [6]: 0.022; Binding to Human CTLA4 (binding amount per unit amount of antibody) [7]: 0.138; Binding to Human CTLA4 (binding amount per unit amount of antibody) [8]: 0.189; Binding to Human CTLA4 (binding amount per unit amount of antibody) [9]: 0.193
0.018	0.046	0.128	0.185	04H1077-G1m/04L1305-k0MT (antibody, human IgG1, kappa, V domains shown) VH: EVQLVESGGDLVKPGGGLRLSCAASGFTFSSRTMNWVRQAPGKGLEWVSSISTRSGYIYYAESVKGRFTISRDNAKNSLYLQMNSLRAEDTAVYYCARYGKREDMLWVFDYWGQGTLVTVSS VL: DIVMTQSPLSLPVTPGEPASISCDGPSTGVGDYNYVHWYQQKPGQAPRLLIYFTSKKPSGVPDRFSGSGSGTDFTLKISRVEAEDVGVYYCQTYAAPLGPMFGQGTKLEIKR	
0.005	0.03	0.108	0.17	04H1208-G1m/04L1086-lam1 (antibody, human IgG1, lambda, V domains shown) VH: EVQLVESGGGLVKPGGSLRLSCAASGFTFSSKTMNWVRQAPGKGLEWVSSISTRSGYIYYARSVKGRFTISRDNAKNSLYLQMNSLRAEDTAVYYCARYGKREDMLWVFDYWGQGTLVTVSS VL: QSALTQPPSASGSPGQTVTISCDGPSTGVGDYNYVHWYQQHPGKAPKLMIYFTSKKPSGVPDRFSGSKSGNTASLTVSGLQAEDEADYFCQTYAAPLGPMFGGGTKLTVLG	
0.01	0.031	0.106	0.181	04H1077-G1m/04L1086-lam1 (antibody, human IgG1, lambda, V domains shown) VH: EVQLVESGGDLVKPGGGLRLSCAASGFTFSSRTMNWVRQAPGKGLEWVSSISTRSGYIYYAESVKGRFTISRDNAKNSLYLQMNSLRAEDTAVYYCARYGKREDMLWVFDYWGQGTLVTVSS VL: QSALTQPPSASGSPGQTVTISCDGPSTGVGDYNYVHWYQQHPGKAPKLMIYFTSKKPSGVPDRFSGSKSGNTASLTVSGLQAEDEADYFCQTYAAPLGPMFGGGTKLTVLG	
				04H1637-G1m/04L1086-lam1 (antibody, human IgG1, lambda) heavy: not shown light: QSALTQPPSASGSPGQTVTISCDGPSTGVGDYNYVHWYQQHPGKAPKLMIYFTSKKPSGVPDRFSGSKSGNTASLTVSGLQAEDEADYFCQTYAAPLGPMFGGGTKLTVLGQPKAAPSVTLFPPSSEELQANKATLVCLISDFYPGAVTVAWKADSSPVKAGVETTTPSKQSNNKYAASSYLSLTPEQWKSHRSYSCQVTHEGSTVEKTVAPTECS	binding result [5]: binds
0.012	0.041	0.131	0.192	04H1077-G1m/04L1067-lam1 (antibody, human IgG1, lambda, V domains shown) VH: EVQLVESGGDLVKPGGGLRLSCAASGFTFSSRTMNWVRQAPGKGLEWVSSISTRSGYIYYAESVKGRFTISRDNAKNSLYLQMNSLRAEDTAVYYCARYGKREDMLWVFDYWGQGTLVTVSS VL: QSALTQPPSASGSPGQTVTISCDGPSTGVGDYNYVHWYQQHPGKAPKLMIYFTSKKPSGVPDRFSGSKSGNTASLTVSGLQAEDEADYFCSTYAAPLGPMFGGGTKLTVLG	
0.02	0.057	0.142	0.185	04H1077-G1m/04L1066-lam1 (antibody, human IgG1, lambda, V domains shown) VH: EVQLVESGGDLVKPGGGLRLSCAASGFTFSSRTMNWVRQAPGKGLEWVSSISTRSGYIYYAESVKGRFTISRDNAKNSLYLQMNSLRAEDTAVYYCARYGKREDMLWVFDYWGQGTLVTVSS VL: QSALTQPPSASGSPGQTVTISCDGPSTDVGDYNWVHWYQQHPGKAPKLMIYFTSKKPSGVPDRFSGSKSGNTASLTVSGLQAEDEADYFCSTYAAPLGPMFGGGTKLTVLG	
0.004	0.007	0.041	0.114	04H1077-G1m/04L1034-lam1 (antibody, human IgG1, lambda, V domains shown) VH: EVQLVESGGDLVKPGGGLRLSCAASGFTFSSRTMNWVRQAPGKGLEWVSSISTRSGYIYYAESVKGRFTISRDNAKNSLYLQMNSLRAEDTAVYYCARYGKREDMLWVFDYWGQGTLVTVSS VL: QSALTQPPSASGSPGQTVTISCDGPSTDVGDYNWVSWYQQHPGKAPKLMIYFTSKKPSGVPDRFSGSKSGNTASLTVSGLQAEDEADYFCSTYAAPLGPMFGGGTKLTVLG	
				H240-G1d/L73-k_glycomab (antibody, fucose-deficient (afucosylated) Fc sugar chain) chain 1: not shown chain 2: DIQMTQSPSSLSASVGDRVTITCRASQDIHKYIAWYQQKPGQAPRLLIQYTSTLQPGVPSRFSGSGSGTDYTFTISSLQPEDIATYYCLQYEQLRTFGGGTKVEIK	Relative value to KD between G1d and hFcgRs [10]: 1.1; Relative value to KD between G1d and hFcgRs [11]: 1.8; Kd [12]: 0.999 µM; Kd [13]: 5.65 µM
				04H1389-G1m/04L1305-k0MT (antibody, human IgG1, kappa, Human IgG1 (G1m), human kappa) heavy: not shown light: DIVMTQSPLSLPVTPGEPASISCDGPSTGVGDYNYVHWYQQKPGQAPRLLIYFTSKKPSGVPDRFSGSGSGTDFTLKISRVEAEDVGVYYCQTYAAPLGPMFGQGTKLEIKRTVAAPSVFIFPPSDEQLKSGTASVVCLLNNFYPREAKVQWKVDNALQSGNSQESVTEQDSKDSTYSLSSTLTLSKADYEKHKVYACEVTHQGLSSPVTKSFNRGEC	Binding to Human CTLA4 (binding amount per unit amount of antibody) [6]: 0.03; Binding to Human CTLA4 (binding amount per unit amount of antibody) [7]: 0.12; Binding to Human CTLA4 (binding amount per unit amount of antibody) [8]: 0.154; Binding to Human CTLA4 (binding amount per unit amount of antibody) [9]: 0.151
